The target in experiment [1] is T1, J08 B.HXB2/BALV1V2 (HIV-1).
T1 construct: also called J08 B.HXB/BAL V1V2
T1 chain: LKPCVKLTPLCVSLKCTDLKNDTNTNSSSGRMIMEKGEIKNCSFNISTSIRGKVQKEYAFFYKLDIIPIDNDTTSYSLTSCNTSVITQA
Nature of the experiment: ELISA, OD405 at 10 ug/ml.

Experiment [2] concerns the target B.9021 gp140C (HIV-1). Nature of the experiment: ELISA, OD405 at 10 ug/ml. Background: An ELISA detects its analyte on a solid surface through an enzyme-linked reagent.
Experiment [3] addresses D.9009SA V1/V2 tags. Nature of the experiment: ELISA, OD405 at 10 ug/ml.
The target in experiment [4] is J08 A.92RW020V1V2 (HIV-1). Nature of the experiment: ELISA, OD405 at 10 ug/ml.
Experiment [5] addresses T2, A.9004SS V1/V2 tags.
T2 V1V2 tags construct: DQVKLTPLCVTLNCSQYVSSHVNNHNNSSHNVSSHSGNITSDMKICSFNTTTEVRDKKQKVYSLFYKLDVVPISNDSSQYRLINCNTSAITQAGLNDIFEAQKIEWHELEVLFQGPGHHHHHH
Nature of the experiment: ELISA, OD405 at 10 ug/ml.

For experiment [6], the target named is B.040 gp140C. Nature of the experiment: ELISA, OD405 at 10 ug/ml.
The target in experiment [7] is C.1086 V1V2 Tags (HIV-1). Nature of the experiment: ELISA, OD405 at 10 ug/ml.
In experiment [8] the target is T3, SIV CPZ US-1 gp140CF (SIVcpz).
T3 construct: also called US-1 SIVCPZ gp140CF
T3 chain: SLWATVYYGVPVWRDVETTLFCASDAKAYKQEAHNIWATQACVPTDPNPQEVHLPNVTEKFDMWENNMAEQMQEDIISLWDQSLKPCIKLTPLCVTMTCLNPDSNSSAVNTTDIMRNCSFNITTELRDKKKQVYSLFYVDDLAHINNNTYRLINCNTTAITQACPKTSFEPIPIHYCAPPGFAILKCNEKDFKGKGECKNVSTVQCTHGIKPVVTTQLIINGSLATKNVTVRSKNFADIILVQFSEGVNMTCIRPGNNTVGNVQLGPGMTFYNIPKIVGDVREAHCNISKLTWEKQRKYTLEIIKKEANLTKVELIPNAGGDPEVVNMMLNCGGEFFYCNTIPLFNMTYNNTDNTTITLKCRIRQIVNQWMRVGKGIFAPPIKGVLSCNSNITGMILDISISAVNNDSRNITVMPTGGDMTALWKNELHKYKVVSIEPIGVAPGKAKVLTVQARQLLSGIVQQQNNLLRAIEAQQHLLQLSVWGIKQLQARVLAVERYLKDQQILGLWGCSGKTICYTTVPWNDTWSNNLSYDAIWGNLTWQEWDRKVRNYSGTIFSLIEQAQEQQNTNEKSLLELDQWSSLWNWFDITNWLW
Nature of the experiment: ELISA, OD405 at 10 ug/ml.

The target in experiment [9] is T4, B.HXB/BAL gp140CFI (HIV-1, UniProt P04578 33-680).
T4 construct: also called B.HxB/Ba gp140 CFI
Nature of the experiment: ELISA, OD405 at 10 ug/ml.

Experiment [10] addresses T5, gp70 C.1086 V1/V2 (HIV-1 V1V2 on murine leukemia virus gp70).
T5 construct: also called C.gp70 1086C V1V2; C.1086gp70V1V2
T5 chain: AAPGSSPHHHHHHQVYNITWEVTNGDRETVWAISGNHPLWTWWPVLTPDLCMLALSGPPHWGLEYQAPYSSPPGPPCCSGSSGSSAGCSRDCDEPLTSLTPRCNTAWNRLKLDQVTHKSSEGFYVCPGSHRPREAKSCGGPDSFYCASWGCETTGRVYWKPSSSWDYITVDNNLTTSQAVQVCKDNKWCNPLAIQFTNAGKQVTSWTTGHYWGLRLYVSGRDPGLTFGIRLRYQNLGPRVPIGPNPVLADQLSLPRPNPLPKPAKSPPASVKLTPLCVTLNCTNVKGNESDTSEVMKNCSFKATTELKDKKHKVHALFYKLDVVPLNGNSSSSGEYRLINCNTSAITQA
Nature of the experiment: ELISA, OD405 at 10 ug/ml.

The target of experiment [11] is T6, B.62357 gp140C.
T6 construct: also called B.62357 140C
Nature of the experiment: ELISA, OD405 at 10 ug/ml.

For experiment [12], the target named is B.con gp140CF. Nature of the experiment: ELISA, OD405 at 10 ug/ml.
The target of experiment [13] is T7, gp70 B.CaseA2 V1/V2 (HIV-1 V1V2 on murine leukemia virus gp70).
T7 construct: also called B.gp70CaseA2 V1/V2; gp70 B.CaseAV1V2
T7 chain: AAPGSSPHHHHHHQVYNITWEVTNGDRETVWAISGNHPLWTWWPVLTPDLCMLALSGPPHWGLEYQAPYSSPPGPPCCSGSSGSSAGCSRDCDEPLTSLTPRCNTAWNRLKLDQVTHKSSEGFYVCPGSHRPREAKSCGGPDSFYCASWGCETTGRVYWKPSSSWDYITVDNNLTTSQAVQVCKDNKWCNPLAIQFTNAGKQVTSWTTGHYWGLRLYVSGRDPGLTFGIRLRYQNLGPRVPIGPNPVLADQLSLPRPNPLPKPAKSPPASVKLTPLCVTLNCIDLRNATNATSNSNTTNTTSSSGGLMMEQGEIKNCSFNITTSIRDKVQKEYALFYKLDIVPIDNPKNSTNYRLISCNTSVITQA
Nature of the experiment: ELISA, OD405 at 10 ug/ml.

Experiment [14] has as its target T3, SIV CPZ US-1 gp140CF. Nature of the experiment: ELISA, OD405 at 10 ug/ml.
In experiment [15] the target is T5, gp70 C.1086 V1/V2. Nature of the experiment: ELISA, OD405 at 10 ug/ml.
Experiment [16] deals with T8, C.1086 gp140.
T8 construct: also called C.1086gp140C
Nature of the experiment: ELISA, OD405 at 10 ug/ml.

Experiment [17] deals with Env of SHIV-1157ipEL-p (SHIV). Nature of the experiment: cell-based or functional assay.
Experiment [18] concerns the target Env of SHIV SF162P3 (SHIV). Nature of the experiment: cell-based or functional assay.
Experiment [19] addresses T9, AE.A244 gD+ gp120 N160K (HIV-1).
T9 construct: domain: gp120
Nature of the experiment: ELISA.

Like-named read-outs stand apart in the source and are kept apart here. A value given as a limit tells only on which side of the number the result lay.

B1: PG16 (antibody, V domains shown)
VH: QEQLVESGGGVVQPGGSLRLSCLASGFTFHKYGMHWVRQAPGKGLEWVALISDDGMRKYHSDSMWGRVTISRDNSKNTLYLQFSSLKVEDTAMFFCAREAGGPIWHDDVKYYDFNDGYYNYHYMDVWGKGTTVTVSS
VL: QSALTQPASVSGSPGQTITISCNGTSSDVGGFDSVSWYQQSPGKAPKVMVFDVSHRPSGISNRFSGSKSGNTASLTISGLHIEDEGDYFCSSLTDRSHRIFGGGTKVTVL
notes: also called mAb PG16; bnAb PG16
As to B1, the binding result in experiment [1], in [2], in experiment [3], in experiment [4], in experiment [5] and in experiment [6] was “no binding (tested: 10 ug/ml)” each time. Further, the binding result in experiment [7], in [8], in experiment [9], in [10], in experiment [11] and in [12] was “no binding (tested: 10 ug/ml)” in each case. For the same molecule, in experiment [13], the binding result is recorded as “no binding (tested: 10 ug/ml)”.

B2: PG9 reverted unmutated ancestor antibody (antibody, V domains shown)
VH: QVQLVESGGGVVQPGRSLRLSCAASGFTFSSYGMHWVRQAPGKGLEWVAVISYDGSNKYYADSVKGRFTISRDNSKNTLYLQMNSLRAEDTAVYYCAREAGGPDYRNGYNYYDFWSGYYNYYYMDVWGKGTTVTVSS
VL: QSALTQPASVSGSPGQSITISCTGTSSDVGSYNLVSWYQQHPGKAPKLMIYEVSKRPSGVSNRFSGSKSGNTASLTISGLQAEDEADYYCCSLTSTRRWVFGGGTKLTVL
notes: also called PG9 RUA; PG9_RUA
B2: the binding result in [14], in experiment [15] and in [16] was “no binding (tested: 10 ug/ml)” in each case.

B3: CH59 (antibody, V domains shown)
VH: EVQLVESGGGLVQPGRSLRLSCAASGFTFDDGAMHWVRQAPGKGLEWVSGISWNSNIIAYADSVKGRFTISRDNAKNSLYLEMNSLRVEDTALYYCAKDSPRGELPLNYWGQGTLVTVSS
VL: SYELTQPPSVSVSPGQTARITCSGDALPKNYAYWYQQKSGQAPVLVIYEDSKRPSGIPERFSGSSSGTMATLTISGAQVEDEADYYCYSTDSSGNHRVFGGGTKLTVL
notes: also called mAb CH59
As for B3, the “EC50, neutralization of SHIV C.1157ipEL-p (tier 1A)” value in experiment [17] turned out to be 24.6 µg/mL. Further, the “EC50, neutralization of SHIV B.SF162P3 (tier 2)” value in [18] was above 50 µg/mL. Further, the response in experiment [19] was half-maximal at 0.03 nM (EC50).

In general, EC50 refers to the concentration needed to bring the measured effect to its halfway point. The low end stands for a more potent agent, the high end for a less potent agent.

Values taken from patent US9988424 (DUKE UNIVERSITY, dated 2018).
